Sequences and labels used below:
T1: extracellular domain of human IL12Rb2 (amino acids 24-622 of hIL12Rb2, UniProt Q99665) (human, UniProt Q99665 24-622)
T1 construct: also called hIL12Rb2 ECD; hIL12Rb2-ECD
T1 sequence: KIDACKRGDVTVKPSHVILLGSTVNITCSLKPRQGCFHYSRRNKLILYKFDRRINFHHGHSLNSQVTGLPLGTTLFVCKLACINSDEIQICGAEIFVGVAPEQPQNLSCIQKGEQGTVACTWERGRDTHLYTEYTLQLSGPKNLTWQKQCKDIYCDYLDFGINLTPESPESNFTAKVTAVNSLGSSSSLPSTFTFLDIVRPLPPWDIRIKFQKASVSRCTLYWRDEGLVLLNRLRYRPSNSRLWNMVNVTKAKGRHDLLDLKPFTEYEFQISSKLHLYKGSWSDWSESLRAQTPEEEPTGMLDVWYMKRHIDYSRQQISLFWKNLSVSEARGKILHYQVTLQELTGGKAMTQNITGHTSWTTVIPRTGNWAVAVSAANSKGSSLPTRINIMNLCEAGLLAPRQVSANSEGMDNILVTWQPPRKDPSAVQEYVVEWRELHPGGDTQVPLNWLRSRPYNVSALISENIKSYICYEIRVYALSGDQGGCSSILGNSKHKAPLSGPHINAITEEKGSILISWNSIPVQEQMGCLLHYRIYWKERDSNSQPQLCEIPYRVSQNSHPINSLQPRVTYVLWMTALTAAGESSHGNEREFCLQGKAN

B1: VHH2 (VHH)
VHH: QVQLQESGGGSVQAGGSLRLSCAASGFTISRYCMGWLRQAPGKQREGVAIIERDGRTGYADSVKGRFTISKDNAKNTLYLQMNSLKPEDTAMYYCGAIEGSCRPDFGYRGQGTQVTVSS
notes: Camel VHH, tested as a periplasmic extract of a phage clone; also called anti-human IL12Rb2 VHH2; hIL12Rb2 VHH; not shown: HA/His tag encoded by the pMECS phagemid
B2: VHH9 (VHH)
VHH: B1 VHH with Y94F
notes: Camel VHH, tested as a periplasmic extract of a phage clone; also called anti-human IL12Rb2 VHH9; hIL12Rb2 VHH; not shown: HA/His tag encoded by the pMECS phagemid
B3: VHH4 (VHH)
VHH: B1 VHH with A23V, E88G
notes: Camel VHH, tested as a periplasmic extract of a phage clone; also called anti-human IL12Rb2 VHH4; hIL12Rb2 VHH; not shown: HA/His tag encoded by the pMECS phagemid
B4: VHH13 (VHH)
VHH: B1 VHH with R31K
notes: Camel VHH, tested as a periplasmic extract of a phage clone; also called anti-human IL12Rb2 VHH13; hIL12Rb2 VHH; not shown: HA/His tag encoded by the pMECS phagemid
B5: VHH11 (VHH)
VHH: B1 VHH with I29V, N73D
notes: Camel VHH, tested as a periplasmic extract of a phage clone; also called anti-human IL12Rb2 VHH11; hIL12Rb2 VHH; not shown: HA/His tag encoded by the pMECS phagemid
B6: VHH8 (VHH)
VHH: B1 VHH with I29V, D54E
notes: Camel VHH, tested as a periplasmic extract of a phage clone; also called anti-human IL12Rb2 VHH8; hIL12Rb2 VHH; not shown: HA/His tag encoded by the pMECS phagemid
B7: VHH17 (VHH)
VHH: B1 VHH with F27L
notes: Camel VHH, tested as a periplasmic extract of a phage clone; also called anti-human IL12Rb2 VHH17; hIL12Rb2 VHH; not shown: HA/His tag encoded by the pMECS phagemid
B8: VHH10 (VHH)
VHH: B1 VHH with I29V, S30T
notes: Camel VHH, tested as a periplasmic extract of a phage clone; also called anti-human IL12Rb2 VHH10; hIL12Rb2 VHH; not shown: HA/His tag encoded by the pMECS phagemid
B9: VHH1 (VHH)
VHH: B1 VHH with I29V, S30T
notes: Camel VHH, tested as a periplasmic extract of a phage clone; also called anti-human IL12Rb2 VHH1; hIL12Rb2 VHH; not shown: HA/His tag encoded by the pMECS phagemid
B10: VHH7 (VHH)
VHH: QVQLQESGGGSVQAGGSLRLSCAASGVTYSRYCMGWFRQAPGLERERVATIYSRGIITYYTDSVKGRFTISQDSAKKTVYLQMNSLKPEDTAMYYCAATRETYGGSGDCDYESVYNYWAQGTQVTVSS
notes: Camel VHH, tested as a periplasmic extract of a phage clone; also called anti-human IL12Rb2 VHH7; hIL12Rb2 VHH; not shown: HA/His tag encoded by the pMECS phagemid
B11: VHH16 (VHH)
VHH: B10 VHH with T50H, D110S, Y117H
notes: Camel VHH, tested as a periplasmic extract of a phage clone; also called anti-human IL12Rb2 VHH16; hIL12Rb2 VHH; not shown: HA/His tag encoded by the pMECS phagemid
B12: VHH12 (VHH)
VHH: B10 VHH with S85M
notes: Camel VHH, tested as a periplasmic extract of a phage clone; also called anti-human IL12Rb2 VHH12; hIL12Rb2 VHH; not shown: HA/His tag encoded by the pMECS phagemid
B13: VHH14 (VHH)
VHH: B10 VHH with T50H, D110G
notes: Camel VHH, tested as a periplasmic extract of a phage clone; also called anti-human IL12Rb2 VHH14; hIL12Rb2 VHH; not shown: HA/His tag encoded by the pMECS phagemid
B14: VHH3 (VHH)
VHH: QVQLQESGGGSVQAGGSLRLSCTASGLTFDDVEMAWYRQGPGDDYDLVSSINTDSRVYYVDSVKDRFTISRDNAKNTLYLQMNNLKPEDTAVYYCAADPWGGDLRGYPNYWGQGTQVTVSS
notes: Camel VHH, tested as a periplasmic extract of a phage clone; also called anti-human IL12Rb2 VHH3; hIL12Rb2 VHH; not shown: HA/His tag encoded by the pMECS phagemid
B15: VHH6 (VHH)
VHH: QVQLQESGGGLVQAGGSLRLSCQASGYTYGLFCMGWFRQVSGKKREGVAVVDSPGGRHVADSLKGRFTISKDNANNILYLDMTNLKSEDTATYYCAADPEKYCFLFSDAGYQYWGQGTQVTVSS
notes: Camel VHH, tested as a periplasmic extract of a phage clone; also called anti-human IL12Rb2 VHH6; hIL12Rb2 VHH; not shown: HA/His tag encoded by the pMECS phagemid

Residue numbers refer to the chain shown, from its start.

The assay deals with T1, extracellular domain of human IL12Rb2 …. In words: periplasmic extract ELISA on antigen-coated plate; positive if A450 at least threefold over PBS-coated control. The protocol:
Upon completion of the biopanning of Example 3, three 96-well plates of individual phage clones were isolated in order to perform periplasmic extract ELISA (PE-ELISA) on IL12Rb2 coated plates to identify positive VHH binders that selectively bound IL12Rb2. A 96-well plate was coated with IL12Rb2 and PBS under the same conditions. Next, wells were blocked at 37° C. for 1 h. Then, 100 μl of extracted antibodies was added to each well and incubated for 1 h. Subsequently, 100 μl of anti-tag polyclonal antibody conjugated to HRP was added to each well and incubated at 37° C. for 1 h. Plates were developed with TMB substrate. The reaction was stopped by the addition of H2SO4. Absorbance at 450 nm was read on a microtiter plate reader. Antibodies with absorbance of the antigen-coated well at least threefold greater than PBS-coated control are VHHs that specifically bind to IL 12Rb2. Positive clones were sequenced, and sequences analyzed to identify unique clonotypes
(In general: ELISA stands for enzyme-linked immunosorbent assay.)
Consider B1, for which the binding result was “binds”.
As to B2, the binding result is listed as “binds”.
For the molecule B3, the binding result was “binds”.
As for B4, the binding result was “binds”.
For B5, the binding result is recorded as “binds”.
On to B6, for which the binding result is given as “binds”.
B7: the binding result was “binds”.
In the case of B8, the binding result was “binds”.
With B9, the binding result is “binds”.
Take B10: the binding result was “binds”.
For the molecule B11, the binding result is reported as “binds”.
As for B12, the binding result is “binds”.
With B13, the binding result was “binds”.
Regarding B14, the binding result is “binds”.
In the case of B15, the binding result is listed as “binds”.
